The source of these data is patent publication US20240277861A1, “ANTI-HEPATITIS B VIRUS AGENT TARGETING HOST FACTOR LIPG” (PUROTECH BIO, INC., priority 2021, published 2024).

One experiment relates to HBV. The note with it: in vitro cell system; cited from earlier work.
Experiment [1] has as its target T1, binding between preS1 and heparan sulfate enhanced by LIPG (Homo sapiens, UniProt Q9Y5X9).
T1 construct: FLAG
T1 sequence (Q9Y5X9 21-500): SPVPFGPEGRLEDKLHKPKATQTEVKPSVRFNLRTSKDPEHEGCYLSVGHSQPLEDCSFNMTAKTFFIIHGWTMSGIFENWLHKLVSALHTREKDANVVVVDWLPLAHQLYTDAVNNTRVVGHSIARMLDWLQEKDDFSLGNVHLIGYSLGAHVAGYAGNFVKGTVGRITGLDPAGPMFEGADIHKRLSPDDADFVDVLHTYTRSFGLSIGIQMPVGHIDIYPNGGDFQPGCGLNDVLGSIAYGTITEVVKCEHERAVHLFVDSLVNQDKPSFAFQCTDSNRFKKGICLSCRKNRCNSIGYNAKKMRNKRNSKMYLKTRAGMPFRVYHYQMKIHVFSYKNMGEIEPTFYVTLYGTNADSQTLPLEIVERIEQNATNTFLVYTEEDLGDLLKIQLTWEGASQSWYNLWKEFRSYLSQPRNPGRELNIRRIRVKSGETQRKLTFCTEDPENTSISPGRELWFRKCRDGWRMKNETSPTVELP
Kind of experiment: Plate assay of binding between preS1 peptide and immobilized heparan sulfate with FLAG-LIPG. The note with it: 10, 25, or 50 fmol of FLAG-LIPG per well. The procedure: FIG. 22-2 The effect of LIPG to promote HBV entry into cells and the effect of a LIPG-binding peptide and Netrin-1 to inhibit HBV entry into cells. E: A biotin-labeled form of heparan sulfate was added to a streptavidin-coated 96 well plate and left overnight at 4° C. to allow the heparan sulfate to bind to the plate. This plate was washed with TBS, and 10, 25, or 50 fmol of FLAG-LIPG was then added to each well to allow the reaction to proceed at room temperature for 2 hours. After the plate was washed, 10 or 100 nmol of LIPG-binding peptide LIPH4-NTNBS, LIPH4-23S, LIPH4-NTNBSA, or LIPH4-23SA was added to each well to allow the treatment to proceed at room temperature for 1 hour. Subsequently, the plate was washed, and 0.1 nmol of preS1-TMR was added to each well to allow the treatment to proceed at room temperature for another 1 hour. The plate was washed and then placed in a plate reader to measure the fluorescence of TMR.
Furthermore, PXB cells treated with Netrin-1 were further treated with FLAG-LIPG, and the uptake of the preS1 peptide was examined, to find that the enhancement of the uptake of the preS1 peptide by FLAG-LIPG was suppressed by Netrin-1 (FIG. 22D). In addition, a biotin-labeled heparan sulfate was immobilized on a streptavidin-coated plate and the preS1 peptide was added thereto to study the binding between the preS1 region of HBV and heparan sulfate present on the cell surface.

Experiment [2] relates to LIPG-mediated HBV attachment and entry (preS1 peptide) in PXB cells. Kind of experiment: Uptake of TMR-labeled preS1 peptide into PXB cells (confocal microscopy). The experiment is classed as cell-based, human. The following applies: PXB cells treated with FLAG-LIPG 3 hours. The procedure: FIG. 22-1 The effect of LIPG to promote HBV entry into cells and the effect of a LIPG-binding peptide and Netrin-1 to inhibit HBV entry into cells. A: PXB cells were mixed with a purified form of FLAG-LIPG and incubated for 3 hours. The resulting cells were mixed with a preS1 peptide fluorescently labeled with TMR (tetramethylrhodamine) and incubated for 30 minutes, and then observed with a confocal microscope. The fluorescence of the preS1 peptide was detected, and the fluorescence intensity was normalized to the DAPI fluorescence intensity. p<0.05. B: PXB cells were treated with 100 nM LIPG-binding peptide LIPH4-23S or LIPH4-NTNBS for 15 hours, and a purified form of FLAG-LIPG was added thereto, followed by incubation for 3 hours. The resulting cells were mixed with a preS1 peptide fluorescently labeled with TMR and incubated for 30 minutes, and then observed with a confocal microscope. The fluorescence of the preS1 peptide was detected, and the fluorescence intensity was normalized to the DAPI fluorescence intensity. *:p<0.05. C: PXB cells were mixed with Netrin-1 and incubated for 3 hours. […] The fluorescence of the preS1 peptide was detected, and the fluorescence intensity was normalized to the DAPI fluorescence intensity. *:p<0.05. […] The fluorescence of the preS1 peptide was detected, and the fluorescence intensity was normalized to the DAPI fluorescence intensity. […]

As to `COc1cc2ncnc(Nc3ccc(F)c(Cl)c3)c2cc1OCCCN1CCOCC1` [gefitinib], the HBV infection entry in the experiment with HBV is given as “reduces HBV infection”.

B1: FLAG-LIPG: purified form of FLAG-tagged LIPG added to PXB cells or plate (protein)
chain: SPVPFGPEGRLEDKLHKPKATQTEVKPSVRFNLRTSKDPEHEGCYLSVGHSQPLEDCSFNMTAKTFFIIHGWTMSGIFENWLHKLVSALHTREKDANVVVVDWLPLAHQLYTDAVNNTRVVGHSIARMLDWLQEKDDFSLGNVHLIGYSLGAHVAGYAGNFVKGTVGRITGLDPAGPMFEGADIHKRLSPDDADFVDVLHTYTRSFGLSIGIQMPVGHIDIYPNGGDFQPGCGLNDVLGSIAYGTITEVVKCEHERAVHLFVDSLVNQDKPSFAFQCTDSNRFKKGICLSCRKNRCNSIGYNAKKMRNKRNSKMYLKTRAGMPFRVYHYQMKIHVFSYKNMGEIEPTFYVTLYGTNADSQTLPLEIVERIEQNATNTFLVYTEEDLGDLLKIQLTWEGASQSWYNLWKEFRSYLSQPRNPGRELNIRRIRVKSGETQRKLTFCTEDPENTSISPGRELWFRKCRDGWRMKNETSPTVELPDYKDDDDK
For the molecule B1, the “binding between preS1 and heparan sulfate (TMR fluorescence)” value in experiment [1] is listed as “enhanced by FLAG-LIPG in a concentration-dependent manner”. The “preS1 peptide present in the cells” value in experiment [2] was “increased by FLAG-LIPG in a concentration-dependent manner”.
